Where no end group is shown, it is not given here.

The target in this test is T1, MBP-PDZ protein (Erbin PDZ) with a single cysteine, conjugated to DNA (UniProt Q96RT1 1321-1410, ATTO 532 (labelled with ATTO 532-NHS); amine-modified DNA oligonucleotide coupled through sulfo-SMCC to the single cysteine between MBP and PDZ).
T1 chain: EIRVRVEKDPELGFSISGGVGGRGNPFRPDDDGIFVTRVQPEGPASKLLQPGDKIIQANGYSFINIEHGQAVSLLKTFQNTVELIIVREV
As to the kind of experiment: FP; no DNA attached to MBP-PDZ.

Turning to CGAGRGSIDTWV (also: ATTO 655 label (site not given here)) [ATTO 655-labeled target peptide], the affinity, expressed as Kd, was 200 nM. This lies in the sub-micromolar range.

The values are drawn from PMC12311895 (2025).
